Patent publication US20110251256A1 (KOREA UNIVERSITY INDUSTRIAL AND ACADEMIC COLLABORATIVE …, published 2011)

T1: β-Catenin (endogenous protein of C2C12 myotubes) (UniProt Q02248 2-781)
T1 construct: also called 13-Catenin
T1 sequence (looked up): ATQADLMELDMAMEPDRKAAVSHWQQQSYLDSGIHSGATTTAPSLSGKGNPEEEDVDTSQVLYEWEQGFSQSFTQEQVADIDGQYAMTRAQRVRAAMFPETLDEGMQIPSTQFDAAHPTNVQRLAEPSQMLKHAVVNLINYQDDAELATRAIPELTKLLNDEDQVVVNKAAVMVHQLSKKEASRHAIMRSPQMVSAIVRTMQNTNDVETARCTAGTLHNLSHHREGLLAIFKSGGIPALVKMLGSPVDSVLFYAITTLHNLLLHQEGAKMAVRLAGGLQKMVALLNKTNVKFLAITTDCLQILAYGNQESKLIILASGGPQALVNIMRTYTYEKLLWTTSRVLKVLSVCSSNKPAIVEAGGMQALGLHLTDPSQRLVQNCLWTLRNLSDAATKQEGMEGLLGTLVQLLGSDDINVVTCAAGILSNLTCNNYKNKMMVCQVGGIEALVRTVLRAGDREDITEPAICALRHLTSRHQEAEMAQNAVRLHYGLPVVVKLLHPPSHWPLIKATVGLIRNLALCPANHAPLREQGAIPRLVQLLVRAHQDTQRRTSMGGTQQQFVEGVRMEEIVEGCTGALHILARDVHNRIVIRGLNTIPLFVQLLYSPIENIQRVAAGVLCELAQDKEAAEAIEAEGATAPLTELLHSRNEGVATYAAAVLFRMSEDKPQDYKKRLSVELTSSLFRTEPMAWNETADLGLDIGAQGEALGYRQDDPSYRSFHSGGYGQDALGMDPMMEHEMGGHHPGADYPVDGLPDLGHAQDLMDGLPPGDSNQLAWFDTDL

T2: M-Cadherin (endogenous protein of C2C12 myotubes), P33146
T2 chain: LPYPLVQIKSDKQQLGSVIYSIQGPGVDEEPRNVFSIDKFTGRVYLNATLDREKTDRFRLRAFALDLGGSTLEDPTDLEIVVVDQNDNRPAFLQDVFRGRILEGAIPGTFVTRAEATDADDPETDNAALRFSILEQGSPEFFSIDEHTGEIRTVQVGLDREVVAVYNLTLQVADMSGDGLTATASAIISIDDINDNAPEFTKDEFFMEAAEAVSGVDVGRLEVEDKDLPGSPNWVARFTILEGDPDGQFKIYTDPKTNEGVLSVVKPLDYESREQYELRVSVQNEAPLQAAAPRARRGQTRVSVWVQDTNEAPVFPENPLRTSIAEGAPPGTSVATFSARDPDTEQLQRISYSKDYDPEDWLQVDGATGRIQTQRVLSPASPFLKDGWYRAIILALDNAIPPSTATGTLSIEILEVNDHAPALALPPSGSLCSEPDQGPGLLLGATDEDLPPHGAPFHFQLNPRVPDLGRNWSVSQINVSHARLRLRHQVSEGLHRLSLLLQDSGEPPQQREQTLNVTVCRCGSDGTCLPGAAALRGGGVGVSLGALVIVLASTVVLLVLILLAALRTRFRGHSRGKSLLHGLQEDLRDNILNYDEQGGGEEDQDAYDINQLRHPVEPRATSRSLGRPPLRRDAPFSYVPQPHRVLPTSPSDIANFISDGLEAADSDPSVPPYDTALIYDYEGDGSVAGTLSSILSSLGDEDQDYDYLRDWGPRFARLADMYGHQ

T3: IRS-1 (endogenous protein of C2C12 cells), P35569
T3 chain: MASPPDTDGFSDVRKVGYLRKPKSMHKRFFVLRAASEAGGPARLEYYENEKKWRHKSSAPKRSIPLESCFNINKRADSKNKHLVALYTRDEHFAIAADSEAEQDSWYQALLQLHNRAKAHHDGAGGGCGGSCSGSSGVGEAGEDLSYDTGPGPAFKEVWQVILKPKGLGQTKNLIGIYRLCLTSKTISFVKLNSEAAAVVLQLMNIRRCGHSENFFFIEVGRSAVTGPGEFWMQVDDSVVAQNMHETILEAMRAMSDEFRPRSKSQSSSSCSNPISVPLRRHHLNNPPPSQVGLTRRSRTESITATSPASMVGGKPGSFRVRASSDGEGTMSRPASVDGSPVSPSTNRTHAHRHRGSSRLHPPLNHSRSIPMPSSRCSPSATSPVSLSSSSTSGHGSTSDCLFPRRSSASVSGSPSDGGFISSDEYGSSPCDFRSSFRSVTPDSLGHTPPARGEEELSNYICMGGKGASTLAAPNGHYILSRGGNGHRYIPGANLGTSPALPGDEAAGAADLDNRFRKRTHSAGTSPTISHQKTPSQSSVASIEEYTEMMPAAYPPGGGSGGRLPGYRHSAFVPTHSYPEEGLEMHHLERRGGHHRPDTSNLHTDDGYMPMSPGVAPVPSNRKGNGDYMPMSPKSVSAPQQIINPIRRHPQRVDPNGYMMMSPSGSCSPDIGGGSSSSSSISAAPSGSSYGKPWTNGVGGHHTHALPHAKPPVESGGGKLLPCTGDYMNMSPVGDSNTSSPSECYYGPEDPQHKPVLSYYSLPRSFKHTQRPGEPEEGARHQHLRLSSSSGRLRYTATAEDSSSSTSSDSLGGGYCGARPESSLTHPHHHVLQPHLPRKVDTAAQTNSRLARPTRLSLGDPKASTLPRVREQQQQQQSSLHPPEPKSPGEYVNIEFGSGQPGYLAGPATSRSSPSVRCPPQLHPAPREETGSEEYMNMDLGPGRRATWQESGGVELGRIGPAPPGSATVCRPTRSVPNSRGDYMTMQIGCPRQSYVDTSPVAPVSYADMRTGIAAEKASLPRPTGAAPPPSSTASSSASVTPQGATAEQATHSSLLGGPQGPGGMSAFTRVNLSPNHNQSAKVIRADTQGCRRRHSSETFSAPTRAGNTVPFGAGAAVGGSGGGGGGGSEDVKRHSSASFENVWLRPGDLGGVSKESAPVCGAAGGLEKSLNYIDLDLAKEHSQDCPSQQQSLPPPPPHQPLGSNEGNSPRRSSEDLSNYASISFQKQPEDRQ

T4: IRS-1 (endogenous protein of C2C12 cells) (UniProt P35569 1-1233)
T4 construct: also called insulin receptor substrate-1
T4 sequence (looked up): T3 chain

B1: M-Cadherin (endogenous protein of C2C12 myotubes) (other, UniProt P33146 60-784, looked up)
chain: T2 chain
B2: TRIM72 (endogenous protein of C2C12 myotubes) (enzyme)
chain: MSAAPGLLRQELSCPLCLQLFDAPVTAECGHSFCRACLIRVAGEPAADGTVACPCCQAPTRPQALSTNLQLSRLVEGLAQVPQGHCEEHLDPLSIYCEQDRTLVCGVCASLGSHRGHRLLPAAEAQARLKTQLPQQKMQLQEACMRKEKTVAVLEHQLVEVEETVRQFRGAVGEQLGKMRMFLAALESSLDREAERVRGDAGVALRRELSSLNSYLEQLRQMEKVLEEVADKPQTEFLMKFCLVTSRLQKILSESPPPARLDIQLPVISDDFKFQVWKKMFRALMPALEELTFDPSSAHPSLVVSSSGRRVECSDQKAPPAGEDTRQFDKAVAVVAQQLLSQGEHYWEVEVGDKPRWALGVMAADASRRGRLHAVPSQGLWLLGLRDGKILEAHVEAKEPRALRTPERPPARIGLYLSFADGVLAFYDASNPDVLTPIFSFHERLPGPVYPIFDVCWHDKGKNAQPLLLVGPEQEQA
notes: Endogenous protein in lysates of C2C12 myotubes; also called tripartite motif-containing 72

How the values were obtained:
[1] = target: T1, β-Catenin (endogenous protein of C2C12 …); experiment: immunoprecipitation from myotubes treated with Si-Control or Si-TRIM72 (FIG. 12F)
[2] = target: T2, M-Cadherin (endogenous protein of C2C12 …)
[3] = target: T3, IRS-1 (endogenous protein of C2C12 …)
[4] = target: B1; experiment: immunoprecipitation of myotube protein with TRIM72 antibody or M-Cadherin antibody (FIGS. 12G and 12H)
[5] = target: T4, IRS-1 (endogenous protein of C2C12 …); experiment: endogenous immunoprecipitation in C2C12 myotubes treated with IGF-I for 0, 5 and 30 minutes (FIG. 9A)
Method: Western blotting and immunostaining were performed as described in Kim, K. B. et al. Proteomics 6, 2444-53 (2006). For immunoprecipitation, cells were lysed in buffer containing 20 mM Tris-HCl pH 7.4, 137 mM NaCl, 1 mM MgCl₂, 1 mM CaCl₂, 20 mM NaF, 10 mM Na₄P₂O₇, 1% NP-40, 1 mM Na₃VO₄, 1 mM PMSF and protease inhibitor cocktail (Roche). The whole cell lysates (600 μg protein) were incubated with specific antibodies for 90 min and then with 50 μl of Protein A-sepharose or G-agarose bead (50%) slurry for 1 h. The immunoprecipitates were analyzed by Western blotting.
Next, the effect of TRIM72 on IGF-1-induced tyrosine phosphorylation of IGFR and IRS-1 was investigated. The tyrosine phosphorylation of IGFR induced by IGF-I was not changed by TRIM72 overexpression or knockdown (FIG. 8). […] Moreover, the molecular association of IRS-1 with PI3K after IGF-I stimulation was weakened by TRIM72 overexpression, but fortified by TRIM72 knockdown. […] In order to analyze the binding domains of TRIM72 and IRS-1, various mutants of both genes were manufactured (FIG. 9B) and transfected into 293 cells. Then, the binding activity was investigated by immunoprecipitation. […] It should be noted that the 293 cells were treated with MG132 (proteasome inhibitor) after transferring IRS-1 and TRIM72.

Binder: B1
- binding result [1]: binds

Binder: B2
- ubiquitination of M-Cadherin in myotubes with reduced TRIM72 [2]: Si-Control treated cells showed stained band (which denotes ubiquitination), whereas Si-TRIM72-treated cells did not
- molecular association of IRS-1 with PI3K after IGF-I stimulation [3]: the molecular association of IRS-1 with PI3K after IGF-I stimulation was weakened by TRIM72 overexpression, but fortified by TRIM72 knockdown
- tyrosine phosphorylation of IRS-1 induced by IGF-I [3]: the tyrosine phosphorylation of IRS-1 was decreased by TRIM72 overexpression, but increased by TRIM72 knockdown
- binding result [4]: binds
- binding result [5]: binds
